Each block holds one molecule with its values, some of them ahead of it.
Assays:
[1] = molecular target: T1, PBS3 (AtGH3.12; His-PBS3) (Arabidopsis thaliana, UniProt Q9LYU4); test: coupled adenylation assay; assay type: biochemical; conditions: 150 μM pABA, 5 mM ATP, 5 mM MgCl2, pH 7.4
T1 sequence (Q9LYU4 1-575): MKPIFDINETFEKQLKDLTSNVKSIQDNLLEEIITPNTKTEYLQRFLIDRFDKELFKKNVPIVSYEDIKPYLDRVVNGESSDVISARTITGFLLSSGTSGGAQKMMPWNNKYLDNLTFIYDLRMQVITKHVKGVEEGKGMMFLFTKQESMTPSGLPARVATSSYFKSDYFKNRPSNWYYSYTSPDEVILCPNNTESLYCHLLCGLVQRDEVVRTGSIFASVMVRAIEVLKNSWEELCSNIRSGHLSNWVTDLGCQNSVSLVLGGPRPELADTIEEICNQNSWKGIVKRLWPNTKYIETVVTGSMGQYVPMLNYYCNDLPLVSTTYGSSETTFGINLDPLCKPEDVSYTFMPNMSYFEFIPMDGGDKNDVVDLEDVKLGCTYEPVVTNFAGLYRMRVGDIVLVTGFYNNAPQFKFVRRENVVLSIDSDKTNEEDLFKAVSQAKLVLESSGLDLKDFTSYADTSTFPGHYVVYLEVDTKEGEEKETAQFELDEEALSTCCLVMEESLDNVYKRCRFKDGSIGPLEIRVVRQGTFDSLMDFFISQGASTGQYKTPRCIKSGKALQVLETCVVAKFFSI

[2] = molecular target: T1, PBS3 (AtGH3.12; His-PBS3); test: HPLC of pABA-Glu formation; assay type: biochemical
purified protein [3] = substrate: O=C(O)c1ccccc1; test: purified protein; conditions: 10 mM Glu, 5 mM ATP, 5 mM MgCl2, pH 8.5
purified protein [4] = substrate: Nc1ncnc2c1ncn2[C@@H]1O[C@H](COP(=O)(O)OP(=O)(O)OP(=O)(O)O)[C@@H](O)[C@H]1O; test: purified protein; conditions: with 10 mM 4-HBA, Mg2+, pH 7.4, 30 °C
purified protein [5] = substrate: Nc1ccc(C(=O)O)cc1; test: purified protein; conditions: 10 mM Glu, 5 mM ATP, 5 mM MgCl2, pH 8.5
purified protein [6] = substrate: O=C(O)c1ccc(O)cc1; test: purified protein; conditions: 10 mM Glu, 5 mM ATP, 5 mM MgCl2, pH 8.5
[7] = substrate: C=C(O[C@H]1C=CC=C(C(=O)O)[C@@H]1O)C(=O)O; test: coupled spectrophotometric assay; assay type: biochemical, Pseudomonas aeruginosa; conditions: modified ICS assay conditions (100 mM Tris, pH 7.7)

Molecule: O=C(O)c1cc(Cl)nc(Cl)c1 [INA]
- Fractional inhibition (300 μM) [1]: 0.70 fraction

- IC50 [2]: ~15 µM
Molecule: O=C(O)c1ccccc1O [salicylate]

B1: PBS3 (AtGH3.12; His-PBS3) (Arabidopsis thaliana) (protein)
chain: T1 sequence (Q9LYU4 1-575)
- Km (purified protein [3]): 867 µM
- kcat (purified protein [3]): 0.066 s⁻¹
- kcat/Km (purified protein [3]): 76.7 M⁻¹ s⁻¹
- Km (purified protein [4]): 791 µM
- Km (purified protein [5]): 153 µM
- kcat (purified protein [5]): 0.0457 s⁻¹
- kcat/Km (purified protein [5]): 298 M⁻¹ s⁻¹
- Km (purified protein [6]): 459 µM
- kcat (purified protein [6]): 0.339 s⁻¹
- kcat/Km (purified protein [6]): 740 M⁻¹ s⁻¹

B2: PchB (isochorismate pyruvate lyase) (Pseudomonas aeruginosa PAO1) (protein)
chain: MKTPEDCTGLADIREAIDRIDLDIVQALGRRMDYVKAASRFKASEAAIPAPERVAAMLPERARWAEENGLDAPFVEGLFAQIIHWYIAEQIKYWRQTRGAA
- Km [7]: 60 µM
